Substrate in this data set: O=C1OC(c2ccc(O)c(S(=O)(=O)O)c2)(c2ccc(O)c(S(=O)(=O)O)c2)c2c(Br)c(Br)c(Br)c(Br)c21
In words: TP_TRANSPORTER: uptake in bile canalicular membrane vesicles from Wistar rat. In kind it is functional, cell membranes, Bile canalicular membrane vesicle.

We go through 1 protein from ChEMBL document CHEMBL2074310, “ATP-dependent organic anion transport system in normal and TR- rat liver canalicular membranes” (Am J Physiol, 1992).

The Km is the concentration of substrate that gives half-maximal velocity.

B1: ATP-binding cassette sub-family C member 2 (Rattus norvegicus) (protein)
chain: MDKFCNSTFWDLSLLESPEADLPLCFEQTVLVWIPLGFLWLLAPWQLYSVYRSRTKRSSITKFYLAKQVFVVFLLILAAIDLSLALTEDTGQATVPPVRYTNPILYLCTWLLVLAVQHSRQWCVRKNSWFLSLFWILSVLCGVFQFQTLIRALLKDSKSNMAYSYLFFVSYGFQIVLLILTAFSGPSDSTQTPSVTASFLSSITFSWYDRTVLKGYKHPLTLEDVWDIDEGFKTRSVTSKFEAAMTKDLQKARQAFQRRLQKSQRKPEATLHGLNKKQSQSQDVLVLEEAKKKSEKTTKDYPKSWLIKSLFKTFHVVILKSFILKLIHDLLVFLNPQLLKLLIGFVKSSNSYVWFGYICAILMFAVTLIQSFCLQSYFQHCFVLGMCVRTTVMSSIYKKALTLSNLARKQYTIGETVNLMSVDSQKLMDATNYMQLVWSSVIQITLSIFFLWRELGPSILAGVGVMVLLIPVNGVLATKIRNIQVQNMKNKDKRLKIMNEILSGIKILKYFAWEPSFQEQVQGIRKKELKNLLRFGQLQSLLIFILQITPILVSVVTFSVYVLVDSANVLNAEKAFTSITLFNILRFPLSMLPMVTSSILQASVSVDRLERYLGGDDLDTSAIRRVSNFDKAVKFSEASFTWDPDLEATIQDVNLDIKPGQLVAVVGTVGSGKSSLVSAMLGEMENVHGHITIQGSTAYVPQQSWIQNGTIKDNILFGSEYNEKKYQQVLKACALLPDLEILPGGDMAEIGEKGINLSGGQKQRVSLARAAYQDADIYILDDPLSAVDAHVGKHIFNKVVGPNGLLAGKTRIFVTHGIHFLPQVDEIVVLGKGTILEKGSYRDLLDKKGVFARNWKTFMKHSGPEGEATVNNDSEAEDDDDGLIPTMEEIPEDAASLAMRRENSLRRTLSRSSRSSSRRGKSLKNSLKIKNVNVLKEKEKEVEGQKLIKKEFVETGKVKFSIYLKYLQAVGWWSILFIILFYGLNNVAFIGSNLWLSAWTSDSDNLNGTNNSSSHRDMRIGVFGALGLAQGICLLISTLWSIYACRNASKALHGQLLTNILRAPMRFFDTTPTGRIVNRFSGDISTVDDLLPQTLRSWMMCFFGIAGTLVMICMATPVFAIIIIPLSILYISVQVFYVATSRQLRRLDSVTKSPIYSHFSETVTGLPIIRAFEHQQRFLAWNEKQIDINQKCVFSWITSNRWLAIRLELVGNLVVFCSALLLVIYRKTLTGDVVGFVLSNALNITQTLNWLVRMTSEAETNIVAVERISEYINVENEAPWVTDKRPPADWPRHGEIQFNNYQVRYRPELDLVLKGITCNIKSGEKVGVVGRTGAGKSSLTNCLFRILESAGGQIIIDGIDVASIGLHDLRERLTIIPQDPILFSGSLRMNLDPFNKYSDEEVWRALELAHLRSFVSGLQLGLLSEVTEGGDNLSIGQRQLLCLGRAVLRKSKILVLDEATAAVDLETDSLIQTTIRKEFSQCTVITIAHRLHTIMDSDKIMVLDNGKIVEYGSPEELLSNRGSFYLMAKEAGIENVNHTEL
As for B1, the Km was found to be 31 µM.
